Experimental data taken from paper doi:10.1101/2023.07.05.547778 (bioRxiv, 2023).
Where no end group is shown, it is not given here. The star is where a group is joined. Biotin = O=C1N[C@H]2[C@H](CS[C@H]2CCCCC(=O)*)N1

Columns and labels:
[1] = biological target: T1, APDTRPAPG (synthetic MUC1 epitope peptide without N-terminal biotin or linker); assay: crystal structure
T1 chain: APDTRPAPG

[2] = biological target: T2, biotin-GGS-APDTRPAPG (N-terminally biotinylated synthetic MUC1 VNTR peptide); assay: SPR
T2 chain: Biotin-GGSAPDTRPAPG

B1: recombinant 139H2 Fab fragment (Fab, V domains shown)
VH: QVQLQQSGAELVKPGASVKLSCKASGYTFTNYYMYWVLQRPGQGLEWIGEINPSNGGTTFNEKFKNKATLTVDKSSSTAYMQLNSLTSEDSAVYYCTRSRYGNYVNYGMDYWGQGTSVTVSS
VL: DIVMSQSPSSLAVSVGEKVTMSCKSSQSLLYSNTQKNYLAWYQQKPGQSPKLLIYWASTRESGVPDRFTGSGSGTDFTLTISSVKAENLAVYYCQQYYRYPPTFGGGTKLELK
[1]
  binding result: binds
[2]
  Kd: 4.5 µM
